The record followed here is patent US7521477B2, “Vitamin C derivatives with peptide, preparation method thereof and composition comprising the same” (Peptron Co., Ltd., priority 2003, dated 2009).

Numbered stars: 1 amine (or outer) side, 2 acyl side, 3 side chain; on linkers, the order of the positions; unused ones are H or OH. Ends that are not written are not given here. * marks the point of attachment. Suc = O=C(CCC(=O)[*:2])[*:1]; Propyl = CCC*

Series [1] in a line: Color change test (storage stability in solution). The series is classed as physicochemical. Set-up: key: −: no or very slight noticeable change (colorless or light yellow); +: slight; ++: moderate; +++: extreme. The following applies: 50 mM in 50 mM potassium phosphate pH 7.0, 40° C. As to the method:
The compounds I to IV synthesized in Example 4 and vitamin C (Sigma Aldrich) were independently dissolved in 50 mM potassium phosphate of pH 7.0 at a concentration of 50 mM, and stored in an incubator at 40° C. for three weeks. Thereafter, the compounds and vitamin C were evaluated for color change according to the standard criteria, and the results are given in Table 2, below.

In series [2] the target is mushroom tyrosinase (Agaricus bisporus, UniProt C7FF04). Description: Inhibitory activity against tyrosinase. The series is classed as biochemical, mushrooms. The following applies: tyrosine substrate, pH 6.8, 37° C.; read-out: IC50 (compound concentration to inhibit 50% of tyrosinase activity). As to the method: Tyrosinase was purchased from the Sigma Company, which was isolated from mushrooms and purified. Tyrosin as a substrate for the purified mushroom tyrosinase was prepared by dissolving in 0.05 M potassium phosphate buffer (pH 6.8) in an amount of 0.3 mg/ml. The compounds and vitamin C were dissolved in distilled water at a concentration of 10 mM, and diluted with distilled water to suitable concentrations.
0.5 ml of the tyrosine solution and 0.5 ml of a buffer were put into a test tube, and 0.5 ml of the diluted compound or vitamin C was added to the test tube. After each test tube was incubated in an incubator at 37° C. for 10 min, 0.05 ml of tyrosinase (2,000 U/ml) was added to each test tube, followed by incubation at 37° C. for 10 min. A sample added with 0.5 ml distilled water instead of the compound was used as a control. Thereafter, each test tube was rapidly cooled on ice to terminate the reaction. Absorbance at 475 nm was measured using a spectrophotometer. Inhibition rate against tyrosinase was calculated using the measured absorbance according to the following Equation 1, and IC50 values (compound concentration to inhibit 50% of tyrosinase activity) were then determined. Inhibition rate (%)=(A−B)/A×100 Equation 1
wherein, A is an absorbance at 475 nm of a sample not containing an inhibitor, and B is an absorbance at 475 nm of a sample containing an inhibitor.

In series [3] the test system is male Hartley guinea pigs. As to the kind of experiment: Phototoxicity test. As to the method:
Each of the test samples was applied to the skin of guinea pigs, and the guinea pigs were exposed to ultraviolet A (UVA) radiation. Then, potency to induce phototoxicity was evaluated. Induction of phototoxicity, which is an abnormal response of the skin to a photo-stimulus such as ultraviolet or visible light, occurs non-immunologically by a chemical. Unlike the allergic response, the degree of phototoxicity can be expected by sufficient intensity of radiation and drugs.
CP and 8-MOP were prepared at a final concentration of 10% in DMSO and then diluted to 1%. Each of guinea pigs was fixed on a fixing plate, and the skin of the guinea pig was covered with 50 μl of each of the test samples. Then, the right area of the skin was not exposed to UV light, and the left area of the skin was exposed to UVA light (320 to 380 nm) of 15 J/cm^2, which was irradiated in a distance of about 10 cm for about 2 hrs. 24 hrs, 48 hr and 72 hrs after UVA irradiation, photosensitization in the treatment group was evaluated in comparison with that in the positive control groups.

The test system of series [4] is male Hartley guinea pigs. As to the kind of experiment: Photosensitization test (Adjuvant & Strip method). The series is classed as in vivo. The procedure: A photosensitization test for the compound II-4 was carried out according to an Adjuvant & Strip method using male Hartley guinea pigs. After four sites to be sensitized were selected at the cervical and dorsal skin of the guinea pigs, an emulsion of WFI and FCA were intradermally injected to each of the selected sites. The sensitized sites were stripped only in a degree of inducing weak erythema, and covered with 0.01 PBS (excipient group), the compound II-4 (test group) and CP (chlorpromazine; positive control group) in a non-occlusive manner. After two hours, long wave-length UV light of about 10 J/cm^2 was irradiated to the test substance-applied sites. 24 hrs, 48 hrs and 72 hrs after UV irradiation, signs of photosensitization were investigated.

The mark [5] stands for this setting: Areas exposed to UVA, applied concentration 0.1%.
Setting [6] is: Areas exposed to UVA, applied concentration 1%.
[7] abbreviates: Areas exposed to UVA, applied concentration 10%.
Setting [8] is: Areas not exposed to UVA, applied concentration 0.1%.
Where [9] appears, read: Areas not exposed to UVA, applied concentration 1%.
[10] abbreviates: Areas not exposed to UVA, applied concentration 10%.

mushroom tyrosinase, sequence (C7FF04 1-392): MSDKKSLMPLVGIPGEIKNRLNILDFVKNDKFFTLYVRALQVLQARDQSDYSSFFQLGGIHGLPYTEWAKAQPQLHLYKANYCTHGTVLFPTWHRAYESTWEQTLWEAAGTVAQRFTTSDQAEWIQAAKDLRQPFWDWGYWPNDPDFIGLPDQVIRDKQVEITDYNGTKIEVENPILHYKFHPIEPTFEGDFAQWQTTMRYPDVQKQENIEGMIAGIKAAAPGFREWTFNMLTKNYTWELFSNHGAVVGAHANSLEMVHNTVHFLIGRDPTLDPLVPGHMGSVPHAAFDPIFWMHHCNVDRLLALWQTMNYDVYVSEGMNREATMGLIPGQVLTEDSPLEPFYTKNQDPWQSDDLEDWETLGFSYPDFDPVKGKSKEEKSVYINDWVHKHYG

In the case of “6-(succinyl-glycyl-lysyl-histidine)ascorbic acid [II-2]”, in series [1], the “Color change After 1 week” value is “−”, the “Color change After 2 weeks” value is on record as “+” and the “Color change After 3 weeks” value is reported as “+”. Besides, in series [2], the IC50 was 700 µM.
For `NCCCCC(NC(=O)C(Cc1cnc[nH]1)NC(=O)CNC(=O)CCC(=O)OCC(O)C1OC(=O)C(O)=C1O)C(=O)O` (centres unmarked) [II-1, 6-(succinyl-glycyl-histidyl-lysine)ascorbic acid], in series [1], the “Color change After 1 week” value is listed as “−”, the “Color change After 2 weeks” value is on record as “+” and the “Color change After 3 weeks” value is “+”. Besides, the IC50 in series [2] stood at 650 µM.
As for “5,6-di(succinyl-glycyl-lysyl-histidine)ascorbic acid [III-2]”, in series [1], the “Color change After 1 week” value is on record as “−”, the “Color change After 2 weeks” value was “+” and the “Color change After 3 weeks” value is “+”.
On to “2-(propyl-glycyl-lysyl-histidine)ascorbic acid [IV-2]”, for which, in series [1], the “Color change After 1 week” value is recorded as “−”, the “Color change After 2 weeks” value is “+” and the “Color change After 3 weeks” value was “++”.
For `NCCCC[C@H](NC(=O)CNC(=O)CCC(=O)OC(CO)C1OC(=O)C(O)=C1O)C(=O)N[C@@H](Cc1c[nH]cn1)C(=O)O` (some centres unmarked) [Compound I-2, 5-(succinyl-glycyl-lysyl-histidine)ascorbic acid], in that order: “−”, “+” and “+”.
As to “2-(propyl-lysyl-threonyl-threonyl-lysyl-serine(SEQ ID NO:1))ascorbic acid ({ascorbic acid-Propyl}-KTTKS) [IV-4]”, in series [1], the “Color change After 1 week” value is reported as “−”, the “Color change After 2 weeks” value is “+” and the “Color change After 3 weeks” value is “++”.
Regarding `O=C1OC(C(O)CO)C(O)=C1OCCCNCC(=O)N1CCC[C@H]1C(=O)N1CC(O)C[C@H]1C(=O)O` (some centres unmarked) [IV-3, 2-(propyl-glycyl-prolyl-hydroxyproline)ascorbic acid], in series [1], the “Color change After 1 week” value is recorded as “−”, the “Color change After 2 weeks” value was “+” and the “Color change After 3 weeks” value is on record as “++”.
For `O=C(CCC(=O)OCC(O)C1OC(=O)C(O)=C1O)NCC(=O)N1CCCC1C(=O)N1CC(O)CC1C(=O)O` (centres unmarked) [II-3, 6-(succinyl-glycyl-prolyl-hydroxyproline)ascorbic acid], in that order: “−”, “+” and “+”.
For `NCCCCC(NC(=O)C(Cc1cnc[nH]1)NC(=O)CNC(=O)CCC(=O)OC(CO)C1OC(=O)C(O)=C1O)C(=O)O` (centres unmarked) [Compound I-1, 5-(succinyl-glycyl-histidyl-lysine)ascorbic acid], in that order: “−”, “+” and “+”.
For the compound `O=C1O[C@H]([C@@H](O)CO)C(O)=C1O` [Vitamin C, ascorbic acid], in series [1], the “Color change After 1 week” value is reported as “+” and the “Color change After 2 weeks” value was “+++”.
With “5,6-di(succinyl-lysyl-threonyl-threonyl-lysyl-serine(SEQ ID NO:1))ascorbic acid ({ascorbic acid-Suc}-KTTKS; also: two succinyl-linked peptides on one ascorbic acid) [III-4]”, in series [1], the “Color change After 1 week” value is given as “−”, the “Color change After 2 weeks” value is “+” and the “Color change After 3 weeks” value is given as “+”.
`NCCCCC(NC(=O)C(Cc1cnc[nH]1)NC(=O)CNCCCOC1=C(O)C(C(O)CO)OC1=O)C(=O)O` (centres unmarked) [IV-1, 2-(propyl-glycyl-histidyl-lysine)ascorbic acid]: in series [1], the “Color change After 1 week” value is “−”, the “Color change After 2 weeks” value is “+” and the “Color change After 3 weeks” value was “++”.
Consider `O=C(CCC(=O)OC(CO)C1OC(=O)C(O)=C1O)NCC(=O)N1CCCC1C(=O)N1CC(O)CC1C(=O)O` (centres unmarked) [Compound I-3, 5-(succinyl-glycyl-prolyl-hydroxyproline)ascorbic acid], for which, in series [1], the “Color change After 1 week” value is reported as “−”, the “Color change After 2 weeks” value was “+” and the “Color change After 3 weeks” value is on record as “+”.
For `CN(C)CCCN1c2ccccc2Sc2ccc(Cl)cc21` [CP, Chlorpromazine], the “Total score/Site No.” value in series [3] (male, Hartley, guinea pig, in vivo) was 0 + 0/10. The figures for the Stimulation index in series [4] (Areas exposed to UVA) and in series [4] (Areas not exposed to UVA) were 5.8 and 0.0, respectively. The Photosensitization index in series [4] (index of UVA irradiation site minus index of non-irradiation site) is listed as 5.8.
With `O=C(CCC(=O)OCC(OC(=O)CCC(=O)NCC(=O)N1CCCC1C(=O)N1CC(O)CC1C(=O)O)C1OC(=O)C(O)=C1O)NCC(=O)N1CCCC1C(=O)N1CC(O)CC1C(=O)O` (centres unmarked) [III-3, 5,6-(succinyl-glycyl-prolyl-hydroxyproline)ascorbic acid], in series [1], the “Color change After 1 week” value is given as “−”, the “Color change After 2 weeks” value was “+” and the “Color change After 3 weeks” value is reported as “+”.
“5,6-di(succinyl-glycyl-histidyl-lysine)ascorbic acid [III-1]”: in series [1], the “Color change After 1 week” value is recorded as “−”, the “Color change After 2 weeks” value is “+” and the “Color change After 3 weeks” value is recorded as “+”.
Take `COc1c2occc2cc2ccc(=O)oc12` [Compound 8-MOP, 8-methoxypsoralen]: the Evaluation result in series [3] (setting [5]) is listed as “Clearly irritating”; in series [3] (setting [6]) it was “Extremely irritating”; in series [3] (setting [7]), “Extremely irritating”; in series [3] (setting [8]), “Practically non-irritating”; in series [3] (setting [9]) it was “Clearly irritating”; in series [3] (setting [10]), “Clearly irritating”. The Mean score in series [3] (setting [5]) is reported as 2.3; in series [3] (setting [6]), 3.2; in series [3] (setting [7]) it was 4.0; in series [3] (setting [8]), 0; in series [3] (setting [9]), 1.4; in series [3] (setting [10]), 1.4.
For the compound “5-(succinyl-lysyl-threonyl-threonyl-lysyl-serine)ascorbic acid [Compound I-4]”, in series [1], the “Color change After 1 week” value is “−”, the “Color change After 2 weeks” value is “+” and the “Color change After 3 weeks” value is listed as “+”.
